Patent US10591471B2, “Suppression of SPLA2-integrin binding for treating an inflammatory condition or suppressing cell proliferation” (THE REGENTS OF THE UNIVERSITY OF CALIFORNIA, priority 2015, dated 2020)
Substitutions are numbered along the chain they refer to. Names may count otherwise. Where no end group is shown, it is not given here.

Experiments:
[1] = target: T1, sPLA2-IIA catalytic activity (Homo sapiens, UniProt P14555); conditions: clinical trials; cited from earlier work
T1 sequence (P14555 21-144): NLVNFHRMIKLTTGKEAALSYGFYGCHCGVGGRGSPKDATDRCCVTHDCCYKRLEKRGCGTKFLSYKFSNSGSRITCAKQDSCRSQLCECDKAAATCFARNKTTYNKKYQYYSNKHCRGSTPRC

[2] = tested on: integrin activation by FKN-CD; conditions: cited from earlier work
[3] = target: T2, FKN-CD (Homo sapiens, UniProt P78423); conditions: cited from earlier work
T2 sequence (P78423 25-100 limits assumed): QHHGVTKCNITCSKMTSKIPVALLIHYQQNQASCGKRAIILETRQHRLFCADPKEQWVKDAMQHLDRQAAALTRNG

[4] = tested on: U937 cells; test: sPLA2-IIA-induced chemotaxis in modified Boyden chambers; assay type: cell-based, human; conditions: 1 μg/ml sPLA2-IIA, 20 μg/ml peptide, 5 h
Method: FIG. 11. S2-β1 peptide suppresses sPLA2-IIA-induced chemotaxis. Chemotaxis was measured in modified Boyden chambers. 1 μg/ml sPLA2-IIA and 20 μg/ml S2-β1 peptide or control peptides in 600 μl RPMI 1640 medium were placed in lower chamber, and U937 cells (2×10^5 cells in 100 μl RPMI 1640 medium) were placed in the upper chamber. After 5 hours of incubation at 37° C., cells in the lower chamber was counted.
Chemotaxis was measured in modified Boyden Chambers (Transwell). One μg/ml sPLA2-IIA and 20 μg/ml S2-β1 peptide or control peptides in 600 μl RPMI 1640 medium were placed in the lower chamber, and U937 cells (2×10^5 cells in 100 μl RPMI1640 medium) were placed in the upper chamber. After 5 h incubation at 37° C., cells in the lower chamber were counted.

[5] = target: T3, sPLA2-IIA (Homo sapiens, UniProt P14555); test: ELISA-type binding of S2 peptides to immobilized sPLA2-IIA; conditions: GST-tagged peptides; sPLA2-IIA 20 μg/ml coating
T3 construct: made in house
T3 sequence (P14555 21-144): T1 sequence (P14555 21-144)
Method: ELISA-type binding assays were performed as described previously (18). Briefly, wells of 96-well Immulon 2 microtiter plates (Dynatech Laboratories, Chantilly, Va.) were coated with 100 μl 0.1 M NaHCO3 containing sPLA2-IIA, γC399tr, FN-H120 for 2 h at 37° C. Remaining protein binding sites were blocked by incubating with PBS/0.1% BSA for 30 min at room temperature. After washing with PBS, S2 peptides were added to the wells and incubated in PBS for 2 h at room temperature. After unbound S2 peptides were removed by rinsing the wells with PBS, bound S2 peptides (GST-tagged) were measured using HRP-conjugated anti-GST antibody and peroxidase substrates.

[6] = tested on: other ligands (e.g., SDF-1, IGF-1); test: Additional testing: binding of linear and cyclic site 2 peptides to other ligands
Text: Data are shown in FIG. 12 comparing cyclic site 2 peptides (β1 and β3) binding to sPLA2-IIA or FKN.

[7] = tested on: integrin αvβ3 on U937, αvβ3-K562 and β3-CHO cells; test: Flow cytometry: binding of FITC-labeled γC399tr to αvβ3 on the cell surface; assay type: cell-based, human
Method: (§1) The cells were cultured to nearly confluent in RPMI 1640/10% FCS (K562 and U937) or DMEM/10% FCS (CHO cells). The cells were resuspended with RPMI 1640/0.02% BSA or DMEM/0.02% BSA and incubated for 30 min at room temperature to block remaining protein binding sites. The cells were then incubated with WT sPLA2-IIA or mutants for 5 min at room temperature and then incubated with FITC-labeled integrin ligands (γC399tr, FN-H120, FN8-11, and ADAM15) for 15 min at room temperature. For blocking experiments, sPLA-IIA was preincubated with S2-β1 peptide for 30 min at room temperature. The cells were washed with PBS/0.02% BSA and analyzed by FACSCalibur (Becton Dickinson, Mountain View, Calif.). For inhibition studies using Cmpd21, sPLA2-IIA was preincubated with Cmpd21 for 30 minutes at room temperature.

[8] = target: T4, integrin αvβ3 on U937, αvβ3-K562 and β3-CHO cells (Homo sapiens, UniProt P05106+P06756); test: Flow cytometry: binding of FITC-labeled ADAM15 disintegrin domain to αvβ3; assay type: cell-based; conditions: sPLA2-IIA 20 μg/ml
T4 construct: expressed in transfected cells; host or cells: U937 (endogenous αvβ3); αvβ3-K562 (transfected human αvβ3); β3-CHO (human β3 with hamster αv)
Method: as §1

[9] = tested on: Listera; conditions: cited from earlier work
[10] = tested on: integrin α5β1 on U937, K562 and CHO cells; test: Flow cytometry: binding of FITC-labeled FN8-11 to α5β1 on the cell surface; assay type: cell-based, human, Chinese hamster; conditions: sPLA2-IIA WT or mutants
Method: as §1

[11] = target: T5, β1 integrins on U937, K562 and α4-K562 cells (Homo sapiens, UniProt P05556); test: Reactivity of β1 integrins to activation-dependent antibodies HUTS4 and HUTS21; assay type: cell-based; conditions: U937, K562, α4-K562 cells in RPMI1640; preliminary experiments
T5 construct: endogenous in cells; host or cells: U937, K562, α4-K562
T5 sequence (P05556 21-798): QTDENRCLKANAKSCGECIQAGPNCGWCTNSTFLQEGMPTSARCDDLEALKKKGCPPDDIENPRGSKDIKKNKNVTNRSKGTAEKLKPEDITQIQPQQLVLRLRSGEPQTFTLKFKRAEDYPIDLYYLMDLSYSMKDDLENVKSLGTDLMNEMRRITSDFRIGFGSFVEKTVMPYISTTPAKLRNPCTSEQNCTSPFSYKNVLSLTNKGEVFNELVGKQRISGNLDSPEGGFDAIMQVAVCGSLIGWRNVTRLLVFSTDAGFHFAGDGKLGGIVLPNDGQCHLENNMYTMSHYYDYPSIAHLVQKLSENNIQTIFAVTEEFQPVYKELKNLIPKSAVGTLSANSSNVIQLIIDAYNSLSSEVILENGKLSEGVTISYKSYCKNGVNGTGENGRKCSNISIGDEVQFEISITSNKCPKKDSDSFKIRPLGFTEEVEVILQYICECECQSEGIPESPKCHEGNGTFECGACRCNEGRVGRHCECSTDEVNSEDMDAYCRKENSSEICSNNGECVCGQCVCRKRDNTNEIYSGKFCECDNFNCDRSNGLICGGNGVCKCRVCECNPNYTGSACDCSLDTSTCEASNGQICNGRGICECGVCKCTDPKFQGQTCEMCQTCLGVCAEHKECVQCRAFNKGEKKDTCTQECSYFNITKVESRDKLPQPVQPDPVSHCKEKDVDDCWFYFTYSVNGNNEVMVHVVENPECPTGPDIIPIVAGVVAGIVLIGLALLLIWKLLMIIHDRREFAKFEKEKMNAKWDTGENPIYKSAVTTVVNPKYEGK
T5 sequence (P08648 42-894 partner limits assumed): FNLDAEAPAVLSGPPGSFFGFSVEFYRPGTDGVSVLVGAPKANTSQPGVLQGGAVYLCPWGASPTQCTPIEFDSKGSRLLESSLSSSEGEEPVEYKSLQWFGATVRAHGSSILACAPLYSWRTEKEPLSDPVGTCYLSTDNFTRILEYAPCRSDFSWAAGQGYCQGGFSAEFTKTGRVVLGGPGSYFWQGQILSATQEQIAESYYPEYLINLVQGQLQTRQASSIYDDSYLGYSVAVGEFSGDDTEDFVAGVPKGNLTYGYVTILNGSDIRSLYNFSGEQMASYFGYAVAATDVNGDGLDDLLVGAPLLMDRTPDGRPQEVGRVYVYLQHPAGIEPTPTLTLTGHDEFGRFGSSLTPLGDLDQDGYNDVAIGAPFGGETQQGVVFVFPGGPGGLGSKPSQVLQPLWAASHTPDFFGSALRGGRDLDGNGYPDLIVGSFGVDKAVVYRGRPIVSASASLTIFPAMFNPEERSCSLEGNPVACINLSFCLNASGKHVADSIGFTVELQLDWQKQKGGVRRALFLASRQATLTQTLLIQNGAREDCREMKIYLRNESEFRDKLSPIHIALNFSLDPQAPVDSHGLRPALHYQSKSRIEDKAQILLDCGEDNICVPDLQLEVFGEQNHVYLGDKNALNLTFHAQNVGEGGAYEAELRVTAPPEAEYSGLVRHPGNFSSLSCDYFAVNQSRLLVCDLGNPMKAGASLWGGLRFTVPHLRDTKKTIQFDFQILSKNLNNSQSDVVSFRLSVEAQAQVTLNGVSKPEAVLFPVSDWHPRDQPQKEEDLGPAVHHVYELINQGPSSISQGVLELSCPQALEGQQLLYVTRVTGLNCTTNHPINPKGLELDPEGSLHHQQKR
T5 sequence (P08648 895-1049 partner limits assumed): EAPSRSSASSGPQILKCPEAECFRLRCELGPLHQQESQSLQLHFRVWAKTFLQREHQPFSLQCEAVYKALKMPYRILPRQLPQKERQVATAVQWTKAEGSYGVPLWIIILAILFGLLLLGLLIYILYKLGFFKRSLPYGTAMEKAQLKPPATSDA
Text: It is unclear whether sPLA2-IIA-induced integrin activation requires global conformational changes in integrins. In current models of integrin activation, activation of β1 integrins induces a swing-out movement of the hybrid domain and exposes epitopes recognized by activation-dependent antibodies (anti-human β1 HUTS4 and HUTS21)(45). The HUTS4 and HUTS21 epitopes are located in the hybrid domain of […] (46,47). […] It is possible that the binding of sPLA2-IIA to site 2 induces only local conformational changes within the headpiece of integrins. […] It was shown that sPLA2-IIA (the current study) FKN-CD (19) actually bind to site 2 and the binding of sPLA2-IIA and FKN to site 2 is required for integrin activation using the peptides from site 2. It is likely that integrins that are activated by sPLA2-IIA and FKN-CD through site 2 have conformations similar to the open-headpiece αvβ3 that has no global conformational changes compared to the closed-headpiece form. The open- and closed-headpiece conformations of αvβ3 may really reflect the fact that integrins can be activated without global conformational changes through allosteric mechanism.

[12] = tested on: integrins αvβ3, α4β1, α5β1; test: sPLA2-IIA-induced integrin activation (present study overall)
Method: ELISA-type binding assays were performed as described previously (18). Briefly, wells of 96-well Immulon 2 microtiter plates (Dynatech Laboratories, Chantilly, Va.) were coated with 100 μl 0.1 M NaHCO3 containing γC399tr or ADAM15 for 2 h at 37° C. Remaining protein binding sites were blocked by incubating with PBS/0.1% BSA for 30 min at room temperature. After washing with PBS, soluble recombinant αvβ3 (5 μg/ml) in the presence or absence of sPLA2-IIA (WT or mutants) was added to the wells and incubated in HEPES-Tyrodes buffer (10 mM HEPES, 150 mM NaCl, 12 mM NaHCO3, 0.4 mM NaH2PO4, 2.5 mM KCl, 0.1% glucose, 0.1% BSA) with 1 mM CaCl2 for 2 h at room temperature. After unbound αvβ3 was removed by rinsing the wells with binding buffer, bound αvβ3 was measured using anti-integrin β3 mAb (AV-10) followed by HRP-conjugated goat anti-mouse IgG and peroxidase substrates.
The cells were cultured to nearly confluent in RPMI 1640/10% FCS (K562 and U937) or DMEM/10% FCS (CHO cells). The cells were resuspended with RPMI 1640/0.02% BSA or DMEM/0.02% BSA and incubated for 30 min at room temperature to block remaining protein binding sites. […] The cells were washed with PBS/0.02% BSA and analyzed by FACSCalibur (Becton Dickinson, Mountain View, Calif.). […]

[13] = tested on: integrin α4β1 on U937, α4-K562 and α4-CHO cells; test: Flow cytometry: binding of FITC-labeled fibronectin H120 fragment to α4β1 on the cell surface; assay type: cell-based, human; conditions: for binding of H120 to α4β1 (α4β1 activation): U937, α4-K562, α4-CHO cells, sPLA2-IIA WT or mutants
Method: as §1

[14] = tested on: integrin ligands used in this study; test: ELISA: binding of sPLA2-IIA to the integrin ligands used; conditions: ligands coated at 2 μM
Method: FIG. 10. Lack of binding of sPLA2-IIA to integrin ligands used in the present study. Wells of 96-well microtiter plates were coated with ligands (2 μM coating concentration) and the remaining protein-binding sites were blocked with BSA. The wells were then incubated with sPLA2-IIA ([…] in PBS) for 2 hours at room temperature, and bound sPLA2-IIA was determined using HRP-conjugated anti-6His antibody. sPLA2-IIA (20 ng/ml coating concentration, 1% of input sPLA2-IIA) was used as a positive control. Data are shown as means+/−SEM of triplicate experiments.

## CCc1c(C(=O)C(N)=O)c2c(OCC(=O)OC)cccc2n1Cc1ccccc1 [S-3013/LY333013]
[1]
  therapeutic effect in rheumatoid arthritis and asthma: failed to demonstrate a significant therapeutic effect

## CCc1c(C(=O)C(N)=O)c2c(OCC(=O)[O-])cccc2n1Cc1ccccc1.[Na+] [S-5920/LY315920Na]
[1]
  therapeutic effect in rheumatoid arthritis and asthma: failed to demonstrate a significant therapeutic effect

## QPNDGQSHVGSDNHYSASTTM [S2-β3 peptide, site 2 peptide, residues 267-287 of β3, C273 changed to S, GST fusion protein]
[2]
  FKN-CD-induced integrin activation: suppresses FKN-CD-induced integrin activation
[3]
  binding to FKN-CD: directly binds to FKN-CD

## S2-β1 peptide: site 2 peptide from integrin β1 (β1 275-294, SEQ ID NO:1), made as GST fusion protein (LPNDGQCHLENNMYTMSHYY; also: made as GST fusion protein)
[4]
  chemotaxis induced by sPLA2-IIA: suppressed chemotaxis induced by sPLA2-IIA
[5]
  binding of site 2 peptide to immobilized sPLA2-IIA: bound better to sPLA2-IIA in a concentration-dependent manner than S2-β3 peptide

## VHDSHYSGQGAMSDNTNSPQT [Compound S2-β3scr, scrambled site 2 peptide, GST fusion protein, control, reference compound]
[2]
  FKN-CD-induced integrin activation: does not
[5]
  binding of site 2 peptide to immobilized sPLA2-IIA: did not bind to sPLA2-IIA

## linear β1 peptide: linear peptide comprising SEQ ID NO:1, GST fusion (LPNDGQCHLENNMYTMSHYY; also: GST fusion)
[6]
  binding to other ligands (e.g., SDF-1, IGF-1): did not bind to other ligands

B1: WT sPLA2-IIA: recombinant human secreted phospholipase A2 type IIA, wild type (protein)
chain: T1 sequence (P14555 21-144)
[7]
  activation of αvβ3 on the cell surface (FITC-γC399tr binding): activated αvβ3
[8]
  binding of FITC-labeled ADAM15 disintegrin domain to αvβ3: markedly enhanced
[9]
  concentration that kills Listera: < 0.1 nM
[10]
  binding of FITC-labeled FN8-11 to α5β1 (α5β1 activation): markedly increased the binding of FITC-labeled FN8-11
[11]
  reactivity of β1 integrins to HUTS4 and HUTS21: did not change reactivity of β1 integrins to HUTS4 and HUTS21
[12]
  sPLA2-IIA concentration required to detect integrin activation: > 5 µg/mL
[13]
  binding of H120 to α4β1 (α4β1 activation): markedly increased the binding of H120 to α4β1
[13]; α4-CHO cells, sPLA2-IIA up to 500 μg/ml, binding reduced at higher concentrations
  sPLA2-IIA concentration of maximum H120 binding: 20 µg/mL
[14]
  direct interaction of sPLA2-IIA with integrin ligands: does not directly interact with the integrin ligands used in this study

B2: R74E/R100E: integrin-binding defective mutant of sPLA2-IIA (protein)
chain: T1 sequence (P14555 21-144) with R74E, R100E
modifications: left off: small tags and cut ends
[10]
  binding of FITC-labeled FN8-11 to α5β1 (α5β1 activation): did not

B3: G29S/D48K: M-type receptor-binding defective mutant of sPLA2-IIA (protein)
chain: T1 sequence (P14555 21-144) with G29S, D48K
modifications: left off: small tags and cut ends
[10]
  binding of FITC-labeled FN8-11 to α5β1 (α5β1 activation): induced α5β1 activation
[13]
  binding of H120 to α4β1 (α4β1 activation): induced α4β1 activation
